The text below walks through data of article PMC10307831, “GATA zinc finger protein p66β promotes breast cancer cell migration by acting as a co-activator of Snail”.

Data set [1] addresses T1, GST-Snail (UniProt O95863 1-264). The data set is described as follows: EMSA; 5 mM Mg2+, poly(dI.dC); EMSA: 10 mM Tris pH 7.5, 50 mM KCl, 1 mM DTT, 5 mM MgCl2, 2.5% glycerol, 0.05% NP-40, 50 ng/ul poly(dI.dC), 600 fmol probe, 12 ug GST protein in 20 ul; gel 6% 0.5x TBE 4 C. Pull-down: NeutrAvidin beads, 8 h 4 C, washed in IP buffer (50 mM Tris pH 7.5, 150 mM NaCl, 1% Triton X-100). As to conditions: protein: recombinant; tags: N-terminal GST (pGEX-4T-1); label: biotin (probe); blunt. For orientation: In EMSA bound probe runs differently from free probe, usually more slowly.

Data set [2] deals with T2, Flag-p66β (UniProt Q8WXI9 1-593). The data set is described as follows: pull-down; p66β alone; relatively high affinity; EMSA: 10 mM Tris pH 7.5, 50 mM KCl, 1 mM DTT, 5 mM MgCl2, 2.5% glycerol, 0.05% NP-40, 50 ng/ul poly(dI.dC), 600 fmol probe, 12 ug GST protein in 20 ul; gel 6% 0.5x TBE 4 C. Pull-down: NeutrAvidin beads, 8 h 4 C, washed in IP buffer (50 mM Tris pH 7.5, 150 mM NaCl, 1% Triton X-100). As to conditions: protein: recombinant; tags: Flag; label: biotin (probe); blunt.

For data set [3], the target named is T2, Flag-p66β. The data set is described as follows: competition; unlabeled mutant vs biotinylated WT probe; EMSA: 10 mM Tris pH 7.5, 50 mM KCl, 1 mM DTT, 5 mM MgCl2, 2.5% glycerol, 0.05% NP-40, 50 ng/ul poly(dI.dC), 600 fmol probe, 12 ug GST protein in 20 ul; gel 6% 0.5x TBE 4 C. Pull-down: NeutrAvidin beads, 8 h 4 C, washed in IP buffer (50 mM Tris pH 7.5, 150 mM NaCl, 1% Triton X-100). As to conditions: protein: recombinant; tags: Flag; 3' overhang 1 nt on strand 1 as printed (reverse strand lacks 5' C).

The target of data set [4] is T1, GST-Snail. Described as above. As to conditions: protein: recombinant; tags: N-terminal GST (pGEX-4T-1); 3' overhang 1 nt on strand 1 as printed (reverse strand lacks 5' C).

T2 sequence (Q8WXI9 whole entry): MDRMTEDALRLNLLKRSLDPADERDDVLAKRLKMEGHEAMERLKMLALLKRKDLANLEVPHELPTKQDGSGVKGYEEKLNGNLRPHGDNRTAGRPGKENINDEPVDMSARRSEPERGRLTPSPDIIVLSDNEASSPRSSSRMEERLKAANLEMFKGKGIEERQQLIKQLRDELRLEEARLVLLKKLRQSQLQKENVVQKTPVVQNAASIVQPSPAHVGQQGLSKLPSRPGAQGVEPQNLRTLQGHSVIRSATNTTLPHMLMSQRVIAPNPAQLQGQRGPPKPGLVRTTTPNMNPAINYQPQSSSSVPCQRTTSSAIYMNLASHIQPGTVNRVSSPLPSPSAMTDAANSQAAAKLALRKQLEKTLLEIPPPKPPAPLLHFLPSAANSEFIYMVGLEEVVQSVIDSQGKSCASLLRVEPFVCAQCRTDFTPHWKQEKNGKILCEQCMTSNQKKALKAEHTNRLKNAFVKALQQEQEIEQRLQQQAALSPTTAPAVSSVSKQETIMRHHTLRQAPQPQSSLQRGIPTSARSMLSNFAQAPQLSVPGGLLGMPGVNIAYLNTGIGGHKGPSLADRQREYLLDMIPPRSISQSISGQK
T1 sequence (O95863 whole entry): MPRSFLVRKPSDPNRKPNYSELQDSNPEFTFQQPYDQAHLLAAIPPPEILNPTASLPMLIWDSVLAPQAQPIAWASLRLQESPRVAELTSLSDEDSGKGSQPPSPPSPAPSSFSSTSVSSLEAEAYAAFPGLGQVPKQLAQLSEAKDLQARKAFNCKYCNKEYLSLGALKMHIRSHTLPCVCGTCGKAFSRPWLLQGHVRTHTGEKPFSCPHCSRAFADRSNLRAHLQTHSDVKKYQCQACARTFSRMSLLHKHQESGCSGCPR

B1: COL6A2-G-box-WT (dsDNA)
DNA 1: GGCCCCCTCCTCCCATCCGCG
DNA 2: CGCGGATGGGAGGAGGGGGCC
B1: the binding result with GST-Snail [1] and with Flag-p66β [2] was “binds” in each case.

B2: COL6A2-G-box-MT (dsDNA)
DNA 1: GGCCCCCTAATAATATCCGCG
DNA 2: GCGGATATTATTAGGGGGCC
For B2, the binding result with Flag-p66β [3] and in the data set with GST-Snail [4] was “no binding” each time.
